Data reported in patent US10870710B2, “Synthetic oligosaccharide subunits of the Psl exopolysaccharide of pseudomonas aeruginosa and uses thereof” (Medlmmune Limited, priority 2013, dated 2020).
Substitutions are numbered along the chain they refer to.

B1: WapR-003: anti-Psl monoclonal antibody, class II epitope; VH SEQ ID NO: 9, VL SEQ ID NO: 10 (antibody, V domains shown)
VH: QMQLVQSGGGLVQPGGSLRLSCSASGFTFSSYPMHWVRQAPGKGLDYVSDISPNGGATNYADSVKGRFTISRDNSKNTVYLQMSSLRAEDTAVYYCVMGLVPYGFDNWGQGTMVTVSS
VL: QTVVTQPASVSASPGQSITISCAGTSGDVGNYNFVSWYQQHPGKAPKLLIYEGSQRPSGVSNRFSGSRSGNTASLTISGLQAEDEADYYCSSYARSYTYVFGTGTKLTVL
modifications: WapR-003 VH; WapR-003 VL
B2: WapR-002: anti-Psl monoclonal antibody, class II epitope; VH SEQ ID NO: 7, VL SEQ ID NO: 8 (antibody, V domains shown)
VH: B1 VH with M2V, A57S, V79L, Y80F, N107I, M113L
VL: QTVVTQPASVSGSPGQSITISCTGTSSDVGGYNYVSWYQQHPGKAPKLMIYEVSNRPSGVSNHFSGSKSGNTASLTISGLQAEDEADYYCSSYTTSSTYVFGTGTKVTVL
modifications: WapR-002 VH; WapR-002 VL
B3: WapR-001: anti-Psl monoclonal antibody, class II epitope; VH SEQ ID NO: 5, VL SEQ ID NO: 6 (antibody, V domains shown)
VH: EVQLLESGGGLVQPGGSLRLSCSASGFTFSRYPMHWVRQAPGKGLEYVSDIGTNGGSTNYADSVKGRFTISRDNSKNTVYLQMSSLRAEDTAVYHCVAGIAAAYGFDVWGQGTMVTVSS
VL: QAGLTQPASVSGSPGQSITISCTGTSSDIATYNYVSWYQQHPGKAPKLMIYEGTKRPSGVSNRFSGSKSGNTASLTISGLQAEDEADYYCSSYARSYTYVFGTGTELTVL
modifications: WapR-001 VH; WapR-001 VL

Columns and labels:
P. aeruginosa = conditions: cited from earlier work
[1] = tested on: attachment of Pseudomonas aeruginosa to epithelial cells; conditions: mAb concentration giving max. inhibition of cell attachment; cited from earlier work
[2] = target: Pseudomonas aeruginosa Psl exopolysaccharide; conditions: anti-Psl mAb binding; cited from earlier work
Psl = experiment: mAb reactivity with Psl after mild alkaline treatment during carbohydrate purification; assay type: binding, P. aeruginosa; conditions: data not shown
Excerpt: This observation raises the possibility that the class I mAb binds to a conformational epitope or a yet to be elucidated sub-stoichiometric Psl isoform. The potential for the latter is supported by the observation that mild alkaline, but not exhaustive protease treatment, during carbohydrate purification abolishes Cam-003 reactivity while maintaining WapR-001 and WapR-016 reactivity (data not shown).

Molecule | OPK EC50 (P. aeruginosa) | Cell attachment max. inhibition [1] | Kd [2] | mAb reactivity after mild alkaline treatment of Psl (Psl)
B1 | 0.278 mg/L | 30.0 µg/mL | 0.0122 µM | –
B2 | 0.396 mg/L | 30.0 µg/mL | 0.0126 µM | –
B3 | 0.310 mg/L | 30.0 µg/mL | 0.00084 µM | maintaining
